B1: Rat serum albumin (other, UniProt P02770 25-608, looked up)
chain: EAHKSEIAHRFKDLGEQHFKGLVLIAFSQYLQKCPYEEHIKLVQEVTDFAKTCVADENAENCDKSIHTLFGDKLCAIPKLRDNYGELADCCAKQEPERNECFLQHKDDNPNLPPFQRPEAEAMCTSFQENPTSFLGHYLHEVARRHPYFYAPELLYYAEKYNEVLTQCCTESDKAACLTPKLDAVKEKALVAAVRQRMKCSSMQRFGERAFKAWAVARMSQRFPNAEFAEITKLATDVTKINKECCHGDLLECADDRAELAKYMCENQATISSKLQACCDKPVLQKSQCLAEIEHDNIPADLPSIAADFVEDKEVCKNYAEAKDVFLGTFLYEYSRRHPDYSVSLLLRLAKKYEATLEKCCAEGDPPACYGTVLAEFQPLVEEPKNLVKTNCELYEKLGEYGFQNAVLVRYTQKAPQVSTPTLVEAARNLGRVGTKCCTLPEAQRLPCVEDYLSAILNRLCVLHEKTPVSEKVTKCCSGSLVERRPCFSALTVDETYVPKEFKAETFTFHSDICTLPDKEKQIKKQTALAELVKHKPKATEDQLKTVMGDFAQFVDKCCKAADKDNCFATEGPNLVARSKEALA
notes: also called RSA
B2: DAT 0120: GLP-1 (7-37) A8G, helical linker, DOM7h-14 fusion (other)
chain: HGEGTFTSDVSSYLEGQAAKEFIAWLVKGRGKEAAAKEAAAKEAAAKELAAKEAAAKEAAAKEAAAKELAADIQMTQSPSSLSASVGDRVTITCRASQWIGSQLSWYQQKPGKAPKLLIMWRSSLQSGVPSRFSGSGSGTDFTLTISSLQPEDFATYYCAQGAALPRTFGQGTKVEIKR
notes: also called DAT 0120: GLP-1 A8G, helical linker, DOM7h-14 fusion

Key:
Assay in all cases: SPR (Biacore), serum albumin immobilised on CM5 chip, fusion flowed at 16 nM to 2 uM
[1] = target: DAT 0117: Exendin 4, helical linker, DOM7h-14 fusion
Description: (§1) The analysis was performed using a CM5 Biacore chip (carboxymethylated dextran matrix) that was coated with serum albumin.
(§2) Affinity (KD) was calculated from the BIACORE traces by fitting on-rate and off-rate curves to traces generated by concentrations of dAb in the region of the KD.

Mouse serum albumin = target: T1, Mouse serum albumin (mouse, UniProt P07724 25-608)
T1 construct: also called MSA
Description: as §1, §2

Human serum albumin = target: T2, Human serum albumin (human, UniProt P02768 25-609)
T2 construct: also called HSA
Description: as §1, §2

Rat serum albumin = target: B1
Description: as §1, §2

T1 sequence (P07724 25-608 limits assumed): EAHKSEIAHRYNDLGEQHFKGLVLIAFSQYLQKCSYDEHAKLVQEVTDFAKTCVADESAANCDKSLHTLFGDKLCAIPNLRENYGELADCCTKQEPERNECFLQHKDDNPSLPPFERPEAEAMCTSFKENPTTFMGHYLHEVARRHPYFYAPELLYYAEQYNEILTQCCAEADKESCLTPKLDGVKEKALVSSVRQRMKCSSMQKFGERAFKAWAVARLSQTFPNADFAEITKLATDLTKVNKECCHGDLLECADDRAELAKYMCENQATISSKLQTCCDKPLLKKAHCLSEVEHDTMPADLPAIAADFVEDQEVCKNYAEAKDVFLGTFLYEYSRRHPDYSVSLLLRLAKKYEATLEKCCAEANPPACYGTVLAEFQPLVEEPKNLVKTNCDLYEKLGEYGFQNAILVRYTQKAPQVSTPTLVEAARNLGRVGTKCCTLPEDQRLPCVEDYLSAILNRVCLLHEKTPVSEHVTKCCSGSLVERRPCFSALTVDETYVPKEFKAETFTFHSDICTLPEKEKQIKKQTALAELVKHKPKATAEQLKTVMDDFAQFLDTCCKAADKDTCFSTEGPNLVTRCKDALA

Row | Binder | Kd [1] [nM] | Kd (Mouse serum albumin) [nM] | Kd (Human serum albumin) [nM] | Kd (Rat serum albumin) [nM]
1 | B1 | 700 | – | – | –
2 | B2 | – | 110 | 110 | 800

From patent publication US20120276098A1 (GlaxoSmithKline, published 2012)
